This series can be described thus: melting temperature; melt of duplexes. To be noted: sodium 0.0675 M; strand 1 µM.
Turning to “CGACGTGCACAATGTGCTG+CAGCACATTGTGCACGTCG (((((((((((((((((((+)))))))))))))))))))”, the Tm amounted to 63 °C.

Consider “CGACGTGCCCAATGTGCTG+CAGCACATCGTGCACGTCG ((((((((.(.((((((((+)))))))).).))))))))”, for which the Tm amounted to 45.8 °C. For “CGACGTGCCCCATGTGCTG+CAGCACATCCAGCACGTCG ((((((((...((((((((+))))))))...))))))))”, the Tm was found to be 47.4 °C. As to “CGACGTGCGAGATGTGCTG+CAGCACATAGTGCACGTCG ((((((((...((((((((+))))))))...))))))))”, the Tm is 47.6 °C. The result for “CGACGTGCACGATGTGCTG+CAGCACATTTGGCACGTCG ((((((((...((((((((+))))))))...))))))))” reads 46.8 °C; that for “CGACGTGCTAAATGTGCTG+CAGCACATAAAGCACGTCG (((((((((..((((((((+))))))))..)))))))))”, 53.1 °C; that for “CGACGTGCAGTATGTGCTG+CAGCACATGGCGCACGTCG ((((((((...((((((((+))))))))...))))))))”, 50.2 °C. Consider “CGACGTGCATGATGTGCTG+CAGCACATAAGGCACGTCG ((((((((.(.((((((((+)))))))).).))))))))”, for which the Tm came out at 52.8 °C. The result for “CGACGTGCTATATGTGCTG+CAGCACATCACGCACGTCG ((((((((...((((((((+))))))))...))))))))” reads 47.9 °C; that for “CGACGTGCTTCATGTGCTG+CAGCACATAGTGCACGTCG ((((((((...((((((((+))))))))...))))))))”, 44.4 °C; that for “CGACGTGCACAATGTGCTG+CAGCACATTTTGCACGTCG (((((((((.(((((((((+))))))))).)))))))))”, 54 °C. In the case of “CGACGTGCCTTATGTGCTG+CAGCACATGTAGCACGTCG ((((((((...((((((((+))))))))...))))))))”, the Tm came to 49.1 °C.

For the substance “CGACGTGCGCTATGTGCTG+CAGCACATATCGCACGTCG (((((((((.(((((((((+))))))))).)))))))))”, the Tm worked out at 56 °C.

Turning to “CGACGTGCACGATGTGCTG+CAGCACATATAGCACGTCG ((((((((...((((((((+))))))))...))))))))”, the Tm is 45.6 °C. The result for “CGACGTGCCTGATGTGCTG+CAGCACATTTGGCACGTCG (((((((((..((((((((+))))))))..)))))))))” reads 55.6 °C. The result for “CGACGTGCCTTATGTGCTG+CAGCACATACGGCACGTCG (((((((((.(((((((((+))))))))).)))))))))” reads 56.1 °C; that for “CGACGTGCTGGATGTGCTG+CAGCACATAGCGCACGTCG ((((((((...((((((((+))))))))...))))))))”, 49.3 °C; that for “CGACGTGCATTATGTGCTG+CAGCACATCATGCACGTCG ((((((((((.((((((((+)))))))).))))))))))”, 54.1 °C. The result for “CGACGTGCCTCATGTGCTG+CAGCACATCAGGCACGTCG ((((((((((.((((((((+)))))))).))))))))))” reads 55 °C; that for “CGACGTGCCGCATGTGCTG+CAGCACATTATGCACGTCG ((((((((...((((((((+))))))))...))))))))”, 46.4 °C; that for “CGACGTGCAAGATGTGCTG+CAGCACATCACGCACGTCG ((((((((..(((((((((+)))))))))..))))))))”, 53.8 °C. For the substance “CGACGTGCCTTATGTGCTG+CAGCACATTTCGCACGTCG ((((((((...((((((((+))))))))...))))))))”, the Tm was determined as 47.1 °C. The result for “CGACGTGCACAATGTGCTG+CAGCACATCGAGCACGTCG ((((((((.(.((((((((+)))))))).).))))))))” reads 48.6 °C; that for “CGACGTGCGTGATGTGCTG+CAGCACATCAAGCACGTCG ((((((((.((((((((((+)))))))))).))))))))”, 58.6 °C. The result for “CGACGTGCTCCATGTGCTG+CAGCACATACTGCACGTCG ((((((((...((((((((+))))))))...))))))))” reads 47.4 °C. The result for “CGACGTGCGGGATGTGCTG+CAGCACATATCGCACGTCG (((((((((..((((((((+))))))))..)))))))))” reads 56.7 °C; that for “CGACGTGCTCGATGTGCTG+CAGCACATCGTGCACGTCG ((((((((.((((((((((+)))))))))).))))))))”, 59 °C; that for “CGACGTGCTAAATGTGCTG+CAGCACATTGCGCACGTCG ((((((((..(((((((((+)))))))))..))))))))”, 51.2 °C. With “CGACGTGCTTGATGTGCTG+CAGCACATGAGGCACGTCG ((((((((.(.((((((((+)))))))).).))))))))”, the Tm stood at 51.6 °C. As to “CGACGTGCTCAATGTGCTG+CAGCACATCAAGCACGTCG (((((((((..((((((((+))))))))..)))))))))”, the Tm is 51.6 °C. The result for “CGACGTGCGCCATGTGCTG+CAGCACATTAGGCACGTCG ((((((((...((((((((+))))))))...))))))))” reads 48.3 °C; that for “CGACGTGCACTATGTGCTG+CAGCACATCCAGCACGTCG ((((((((...((((((((+))))))))...))))))))”, 42.6 °C. The result for “CGACGTGCTAGATGTGCTG+CAGCACATGACGCACGTCG ((((((((...((((((((+))))))))...))))))))” reads 48.1 °C; that for “CGACGTGCTAGATGTGCTG+CAGCACATTTTGCACGTCG ((((((((.(.((((((((+)))))))).).))))))))”, 52 °C; that for “CGACGTGCCTAATGTGCTG+CAGCACATATCGCACGTCG ((((((((...((((((((+))))))))...))))))))”, 47 °C. The result for “CGACGTGCTCCATGTGCTG+CAGCACATCATGCACGTCG ((((((((...((((((((+))))))))...))))))))” reads 47.7 °C. Consider “CGACGTGCATCATGTGCTG+CAGCACATTACGCACGTCG ((((((((.(.((((((((+)))))))).).))))))))”, for which the Tm turned out to be 48.1 °C. As to “CGACGTGCCGTATGTGCTG+CAGCACATGGAGCACGTCG ((((((((...((((((((+))))))))...))))))))”, the Tm is 50.8 °C. The result for “CGACGTGCAGCATGTGCTG+CAGCACATGATGCACGTCG (((((((((.(((((((((+))))))))).)))))))))” reads 61.3 °C.

Consider “CGACGTGCGCTATGTGCTG+CAGCACATTAAGCACGTCG ((((((((...((((((((+))))))))...))))))))”, for which the Tm is 52.8 °C. For “CGACGTGCGACATGTGCTG+CAGCACATACAGCACGTCG ((((((((...((((((((+))))))))...))))))))”, the Tm worked out at 53.1 °C. The result for “CGACGTGCCCTATGTGCTG+CAGCACATAGAGCACGTCG ((((((((.((((((((((+)))))))))).))))))))” reads 55.6 °C; that for “CGACGTGCATAATGTGCTG+CAGCACATTTCGCACGTCG ((((((((..(((((((((+)))))))))..))))))))”, 51 °C; that for “CGACGTGCGCCATGTGCTG+CAGCACATAGGGCACGTCG ((((((((.(.((((((((+)))))))).).))))))))”, 52.8 °C. The result for “CGACGTGCTTGATGTGCTG+CAGCACATCTAGCACGTCG (((((((((.(((((((((+))))))))).)))))))))” reads 58.6 °C; that for “CGACGTGCAACATGTGCTG+CAGCACATACAGCACGTCG ((((((((...((((((((+))))))))...))))))))”, 47.9 °C; that for “CGACGTGCATAATGTGCTG+CAGCACATGCAGCACGTCG ((((((((...((((((((+))))))))...))))))))”, 51.4 °C. On to “CGACGTGCGTAATGTGCTG+CAGCACATGAGGCACGTCG ((((((((.(.((((((((+)))))))).).))))))))”, for which the midpoint of thermal melting (Tm) is 53.6 °C. The result for “CGACGTGCACTATGTGCTG+CAGCACATAGGGCACGTCG ((((((((.((((((((((+)))))))))).))))))))” reads 58.9 °C; that for “CGACGTGCAGAATGTGCTG+CAGCACATTAAGCACGTCG ((((((((..(((((((((+)))))))))..))))))))”, 53.3 °C. The result for “CGACGTGCCAGATGTGCTG+CAGCACATCCTGCACGTCG ((((((((..(((((((((+)))))))))..))))))))” reads 54.3 °C; that for “CGACGTGCTCAATGTGCTG+CAGCACATTCTGCACGTCG ((((((((..(((((((((+)))))))))..))))))))”, 50.8 °C. The result for “CGACGTGCAATATGTGCTG+CAGCACATCCTGCACGTCG (((((((((..((((((((+))))))))..)))))))))” reads 49.6 °C; that for “CGACGTGCAGCATGTGCTG+CAGCACATACTGCACGTCG ((((((((((.((((((((+)))))))).))))))))))”, 55.7 °C.

Take “CGACGTGCGAGATGTGCTG+CAGCACATTCTGCACGTCG ((((((((...((((((((+))))))))...))))))))”: the Tm is 52.9 °C.

For “CGACGTGCCGGATGTGCTG+CAGCACATTGAGCACGTCG ((((((((...((((((((+))))))))...))))))))”, the Tm turned out to be 50.8 °C.

In the case of “CGACGTGCCCAATGTGCTG+CAGCACATCCAGCACGTCG ((((((((...((((((((+))))))))...))))))))”, the Tm is 49 °C.

Turning to “CGACGTGCCAAATGTGCTG+CAGCACATATGGCACGTCG ((((((((((.((((((((+)))))))).))))))))))”, the Tm is 56.9 °C. The result for “CGACGTGCAGCATGTGCTG+CAGCACATTCAGCACGTCG ((((((((.(.((((((((+)))))))).).))))))))” reads 47.8 °C; that for “CGACGTGCCAAATGTGCTG+CAGCACATAGGGCACGTCG (((((((((..((((((((+))))))))..)))))))))”, 54.6 °C; that for “CGACGTGCCTTATGTGCTG+CAGCACATAGGGCACGTCG (((((((((.(((((((((+))))))))).)))))))))”, 57.7 °C. “CGACGTGCATAATGTGCTG+CAGCACATGCCGCACGTCG ((((((((...((((((((+))))))))...))))))))”: the midpoint of thermal melting (Tm) is 50.9 °C. As to “CGACGTGCTATATGTGCTG+CAGCACATGCAGCACGTCG (((((((((..((((((((+))))))))..)))))))))”, the Tm amounted to 52.5 °C.

As for “CGACGTGCTAGATGTGCTG+CAGCACATTTAGCACGTCG ((((((((((.((((((((+)))))))).))))))))))”, the Tm turned out to be 56.6 °C.

As for “CGACGTGCTCCATGTGCTG+CAGCACATATGGCACGTCG ((((((((...((((((((+))))))))...))))))))”, the melting temperature (Tm) was found to be 49 °C. The result for “CGACGTGCTATATGTGCTG+CAGCACATGAAGCACGTCG (((((((((..((((((((+))))))))..)))))))))” reads 53.2 °C.

Values taken from the array DNA melting data of Ke et al..
